Where a name gives a salt, the structure may show the parent alone. Where no end group is shown, it is not given here.
Columns and labels:
Assay type in all cases: binding
[1] = biological target: T1, LEF-1/β-catenin interaction (Homo sapiens, UniProt P35222); assay: ELISA: inhibition of complex formation of LEF-1 and β-catenin; conditions: for inhibition of the interaction between LEF-1 and β-catenin (complex formation): synthetic peptides, 100 μM to 0.3 μM
T1 construct: made in house; host or cells: bacteria
T1 sequence (P35222 1-781): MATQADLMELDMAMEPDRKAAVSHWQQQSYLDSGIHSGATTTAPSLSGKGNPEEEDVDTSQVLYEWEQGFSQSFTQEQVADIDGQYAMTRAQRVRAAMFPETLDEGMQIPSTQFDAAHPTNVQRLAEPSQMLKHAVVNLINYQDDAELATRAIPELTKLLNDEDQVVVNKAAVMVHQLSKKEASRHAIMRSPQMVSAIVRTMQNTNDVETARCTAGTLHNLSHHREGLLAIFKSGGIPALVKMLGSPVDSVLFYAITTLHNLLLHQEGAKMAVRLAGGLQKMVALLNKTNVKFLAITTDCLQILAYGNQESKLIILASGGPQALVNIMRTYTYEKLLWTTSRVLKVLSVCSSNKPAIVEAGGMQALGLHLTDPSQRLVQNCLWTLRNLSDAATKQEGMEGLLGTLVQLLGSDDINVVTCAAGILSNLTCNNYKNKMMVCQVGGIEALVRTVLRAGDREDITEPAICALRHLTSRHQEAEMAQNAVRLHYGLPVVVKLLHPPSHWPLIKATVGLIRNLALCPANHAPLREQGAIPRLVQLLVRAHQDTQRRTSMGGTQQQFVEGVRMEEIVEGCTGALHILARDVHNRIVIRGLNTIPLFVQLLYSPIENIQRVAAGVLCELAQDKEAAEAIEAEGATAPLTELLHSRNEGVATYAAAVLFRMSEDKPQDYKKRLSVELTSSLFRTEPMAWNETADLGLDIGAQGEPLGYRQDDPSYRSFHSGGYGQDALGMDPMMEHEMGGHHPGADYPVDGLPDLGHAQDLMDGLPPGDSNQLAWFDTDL
Text: Both proteins were produced in bacteria recombinantly with N-terminal histidine sequences, purified by means of nickel chromatography for quantifying the inhibition of the LEF-1/β-catenin interaction by synthetic peptides and (Behrens et al. 1996). The peptides were produced by the company Biosyntan with the aid of a PSSM-8 automaton (Shimadzu, Japan) applying the Fmoc/But strategy (E. Atherton and R. C. Sheppard. 1989 IRL Press. Oxford: “Solid phase peptide synthesis—a practical approach”). Approx. 50 ng of LFF-1 were absorbed in the wells of ELISA plates for 90 minutes at room temperature. Subsequently, the wells were covered with 5% dry milk powder in PBS for 16 hours at 4° C. All further steps were carried out at room temperature in PBS with 50 mM Tris HCl (pH 7.5). After washing the wells with PBS the peptide dilutions were added. The incubation with 50–100 ng of β-catenin was carried out for 10 minutes in the presence of […] BSA. The complex formation of LEF-1 and β-catenin was detected by the antibody PA2 against the carboxy terminal area of β-catenin (Huelsken et al. 1994). PA2 was added in a standard dilution of 1:5000 in 3% of dry milk powder in PBS for 10 minutes. After washing the wells with PBS a quantification was carried out by detection antibodies conjugated by peroxidase (1: 2500 in 3% of dry milk powder in PBS, Dianova) and the conversion of o-phenylenediamine was determined by photometric measurement at […]. The peptides were used in concentrations of 100 μM to 0.3 μM. To check the specificity of the inhibition of the LEF-1/β-catenin interaction β-catenin was absorbed in the wells and detected by means of the same antibodies in the presence and absence of the peptides (FIGS. 2 and 3).
For a mutation analysis of the peptides the indicated amino acids were substituted by alanine during the synthesis. The inhibition of the complex formation of β-catenin and LEF-1 was quantified as has been already described (FIG. 2).

[2] = biological target: T2, LEF-1 (Mus musculus, UniProt P27782); assay: yeast 2-hybrid: interaction of β-catenin mutants with LEF-1
T2 construct: the cDNA of LEF-1 for the amino acids 1–99; expressed in transfected cells; host or cells: yeast (two-hybrid, Matchmaker, Clontech)
Procedure: (§1) The mutagenesis of β-catenin in the armadillo repeats 3–8 was carried out by means of the “mutagenesis kit” of the company Clontech according to the producer's record and the mutants were checked by sequencing (FIG. 5). In all mutants the original amino acid was substituted by alanine. For analyzing the interactions the cDNA of human β-catenin (armadillo repeat 3 up to the C-terminal end of the protein) coding for the amino acids Leu218–Leu7 μl or its mutants was cloned into the fusion vector for the activation domain of Gal-4 (pGAD424, Clontech). The cDNA for the binding domains of the interaction partners was cloned into the Lex-A fusion vector BTM 116. To this end, the cDNA of LEF-1 for the amino acids 1–99, conductin for the amino acids Ala342–ARG465; of human APC for the amino acids His1012–Glu1215 (APC 15 amino acid repeats) and for the amino acids Ser1259Asp 1400 (APC 20 amino acid repeats) and E-cadherin for the amino acids Gin773–Asp884 (cytoplasmatic domain) were amplified with the respective primers PCR. The interaction of the Lex-A hybrids with β-catenin and its mutants was quantified by means of the β-galactosidase reporter activity in the yeast 2-hybrid system (report: “Matchmaker”. Clontech) (Tab. 2 and FIG. 6).

[3] = biological target: T3, APC (20 amino acid repeats) (Homo sapiens, UniProt P25054); assay: yeast 2-hybrid: interaction of β-catenin mutants with APC 20 amino acid repeats; conditions: yeast 2-hybrid, alanine mutants
T3 construct: for the amino acids Ser1259Asp 1400 (APC 20 amino acid repeats); expressed in transfected cells; host or cells: yeast (two-hybrid, Matchmaker, Clontech)
T3 sequence (P25054 1253-1394 limits assumed): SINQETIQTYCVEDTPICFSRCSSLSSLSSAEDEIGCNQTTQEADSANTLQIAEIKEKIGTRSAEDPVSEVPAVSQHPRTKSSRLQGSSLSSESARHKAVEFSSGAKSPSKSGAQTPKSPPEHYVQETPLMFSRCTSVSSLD
Procedure: as §1

[4] = biological target: T4, APC (15 amino acid repeats) (Homo sapiens, UniProt P25054); assay: yeast 2-hybrid: interaction of β-catenin mutants with APC 15 amino acid repeats; conditions: for Interaction With APC-15, share of wild type β-catenin interaction: yeast 2-hybrid, alanine mutants
T4 construct: of human APC for the amino acids His1012–Glu1215 (APC 15 amino acid repeats); expressed in transfected cells; host or cells: yeast (two-hybrid, Matchmaker, Clontech)
T4 sequence (P25054 1006-1209 limits assumed): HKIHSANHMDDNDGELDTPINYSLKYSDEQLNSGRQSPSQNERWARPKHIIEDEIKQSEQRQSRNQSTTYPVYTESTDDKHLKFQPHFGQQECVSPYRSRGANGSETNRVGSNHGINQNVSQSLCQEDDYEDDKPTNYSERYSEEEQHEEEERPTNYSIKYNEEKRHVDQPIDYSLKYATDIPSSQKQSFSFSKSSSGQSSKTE
Procedure: as §1

[5] = biological target: T5, conductin (Mus musculus, UniProt O88566); assay: yeast 2-hybrid: interaction of β-catenin mutants with conductin; conditions: yeast 2-hybrid, alanine mutants
T5 construct: conductin for the amino acids Ala342–ARG465; expressed in transfected cells; host or cells: yeast (two-hybrid, Matchmaker, Clontech)
Procedure: as §1

[6] = biological target: T6, E-cadherin (Mus musculus, UniProt P09803); assay: yeast 2-hybrid: interaction of β-catenin mutants with E-cadherin; conditions: alanine mutants
T6 construct: E-cadherin for the amino acids Gin773–Asp884 (cytoplasmatic domain); expressed in transfected cells; host or cells: yeast (two-hybrid, Matchmaker, Clontech)
Procedure: as §1

T5 sequence (O88566 343-465 limits assumed): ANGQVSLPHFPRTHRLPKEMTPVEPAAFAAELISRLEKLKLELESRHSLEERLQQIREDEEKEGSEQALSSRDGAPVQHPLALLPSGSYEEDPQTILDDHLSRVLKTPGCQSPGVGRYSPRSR
T2 sequence (P27782 1-99): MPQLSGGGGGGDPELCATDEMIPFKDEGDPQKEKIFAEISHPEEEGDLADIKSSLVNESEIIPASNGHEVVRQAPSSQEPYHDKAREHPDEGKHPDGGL
T6 sequence (P09803 773-884): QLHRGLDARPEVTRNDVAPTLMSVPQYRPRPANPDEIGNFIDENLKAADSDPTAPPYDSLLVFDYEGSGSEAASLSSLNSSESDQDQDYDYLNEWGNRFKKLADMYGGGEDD

Asp10: synthetic hTCF-4 N-terminal peptide with Asp10 substituted by alanine (GGDALGANDELISFKDEGEQEEK)
inhibition of the interaction between LEF-1 and β-catenin (complex formation) [1]: stopping the inhibition

Asp22: synthetic hTCF-4 N-terminal peptide with Asp22 substituted by alanine (GGDDLGANDELISFKAEGEQEEK)
inhibition of the interaction between LEF-1 and β-catenin (complex formation) [1]: stopping the inhibition

Lys21: synthetic hTCF-4 N-terminal peptide with Lys21 substituted (GGDDLGANDELISFADEGEQEEK)
inhibition of the interaction between LEF-1 and β-catenin (complex formation) [1]: has the same effect

ELCATDEMIPFKDE [14–27]
inhibition of the interaction between LEF-1 and β-catenin (complex formation) [1]: inhibit specifically

Ile35–Val56: peptide of LEF-1 with the amino acids Ile35–Val56 (IFAEISHPEEEGDLADIKSSLV)
inhibition of the interaction between LEF-1 and β-catenin (complex formation) [1]: does not inhibit complex formation

Cn1nnnc1SCC1=C(C(=O)O)N2C(=O)C(NC(=O)[C@@H](O)c3ccccc3)C2SC1 (stereo partly shown) [cefamandole, CEFAMANDOLESODIUM SALT, reference compound]
IC50 ([1]; recombinant purified proteins, 15–250 μM, FIG. 9, read-out: IC50, reduction of the complex formation of LEF-1 and β-catenin): 25 µM

GDPELCATDEMIPFKDEGDPQKEK [11–34]
inhibition of the interaction between LEF-1 and β-catenin (complex formation) [1]: inhibit specifically

Asp15: synthetic hTCF-4 N-terminal peptide with Asp15 substituted by alanine (GGDDLGANAELISFKDEGEQEEK)
inhibition of the interaction between LEF-1 and β-catenin (complex formation) [1]: stopping the inhibition

Phe20: synthetic hTCF-4 N-terminal peptide with Phe20 substituted (GGDDLGANDELISAKDEGEQEEK)
inhibition of the interaction between LEF-1 and β-catenin (complex formation) [1]: has the same effect

B1: Lys 435: human β-catenin mutant, Lys 435 substituted by alanine (arm 8) (protein)
chain: LHNLSHHREGLLAIFKSGGIPALVKMLGSPVDSVLFYAITTLHNLLLHQEGAKMAVRLAGGLQKMVALLNKTNVKFLAITTDCLQILAYGNQESKLIILASGGPQALVNIMRTYTYEKLLWTTSRVLKVLSVCSSNKPAIVEAGGMQALGLHLTDPSQRLVQNCLWTLRNLSDAATKQEGMEGLLGTLVQLLGSDDINVVTCAAGILSNLTCNNYKNAMMVCQVGGIEALVRTVLRAGDREDITEPAICALRHLTSRHQEAEMAQNAVRLHYGLPVVVKLLHPPSHWPLIKATVGLIRNLALCPANHAPLREQGAIPRLVQLLVRAHQDTQRRTSMGGTQQQFVEGVRMEEIVEGCTGALHILARDVHNRIVIRGLNTIPLFVQLLYSPIENIQRVAAGVLCELAQDKEAAEAIEAEGATAPLTELLHSRNEGVATYAAAVLFRMSEDKPQDYKKRLSVELTSSLFRTEPMAWNETADLGLDIGAQGEPLGYRQDDPSYRSFHSGGYGQDALGMDPMMEHEMGGHHPGADYPVDGLPDLGHAQDLMDGLPPGDSNQLAWFDTDL
modifications: left off: large carriers; small tags and cut ends
Interaction With LEF-1, share of wild type β-catenin interaction ([2]; yeast 2-hybrid, alanine mutants): — (Interactions marked by — correspond to 60–100% of the wild type interaction) | interaction with LEF-1/TCF-4 ([2]; β-catenin mutation, in words): blocking the interaction | Interaction With APC-20, share of wild type β-catenin interaction [3]: — (Interactions marked by — correspond to 60–100% of the wild type interaction) | Interaction With APC-15, share of wild type β-catenin interaction [4]: 30% | Interaction With Conductin, share of wild type β-catenin interaction [5]: 42% | Interaction With E-Cadherin, share of wild type β-catenin interaction [6]: — (Interactions marked by — correspond to 60–100% of the wild type interaction)

B2: Arg 386: human β-catenin mutant, Arg 386 substituted by alanine (arm 6) (protein)
chain: LHNLSHHREGLLAIFKSGGIPALVKMLGSPVDSVLFYAITTLHNLLLHQEGAKMAVRLAGGLQKMVALLNKTNVKFLAITTDCLQILAYGNQESKLIILASGGPQALVNIMRTYTYEKLLWTTSRVLKVLSVCSSNKPAIVEAGGMQALGLHLTDPSQRLVQNCLWTLANLSDAATKQEGMEGLLGTLVQLLGSDDINVVTCAAGILSNLTCNNYKNKMMVCQVGGIEALVRTVLRAGDREDITEPAICALRHLTSRHQEAEMAQNAVRLHYGLPVVVKLLHPPSHWPLIKATVGLIRNLALCPANHAPLREQGAIPRLVQLLVRAHQDTQRRTSMGGTQQQFVEGVRMEEIVEGCTGALHILARDVHNRIVIRGLNTIPLFVQLLYSPIENIQRVAAGVLCELAQDKEAAEAIEAEGATAPLTELLHSRNEGVATYAAAVLFRMSEDKPQDYKKRLSVELTSSLFRTEPMAWNETADLGLDIGAQGEPLGYRQDDPSYRSFHSGGYGQDALGMDPMMEHEMGGHHPGADYPVDGLPDLGHAQDLMDGLPPGDSNQLAWFDTDL
modifications: left off: large carriers; small tags and cut ends
Interaction With APC-15, share of wild type β-catenin interaction [4]: 12% | interaction with APC 15aa ([4]; β-catenin mutation, in words): no interaction with APC 15aa | Interaction With Conductin, share of wild type β-catenin interaction [5]: 45% | Interaction With E-Cadherin, share of wild type β-catenin interaction [6]: — (Interactions marked by — correspond to 60–100% of the wild type interaction)

— patent US7067474B1, “Agents for treating human illnesses based on β-catenin, and the production and use thereof” (Max-Delbruck-Centrum fur Molekulare Medizin, priority 1998, dated 2006)
